Drawing on patent US6271012, this text covers Specific activity relative to PB92 protease (%), ADU method, kcat/Km (Km in mM and kcat in 1/s) and turnover number (kcat) measured on casein for 29 substances.

The target of experiment [1] is casein (Hammerstein, Merck).
Experiment [2] concerns the target succinyl-L-alanyl-L-alanyl-L-prolyl-L-phenylalanyl-p-nitroanilide (not provided).
Experiment [3] deals with casein (Hammerstein, Merck). The source holds these as a separate data set.

Take “PB92 protease mutant G116V, S126Y, P127G, S128L (enzyme)”: the Specific activity relative to PB92 protease (%), ADU method in experiment [1] amounted to 69%.

On to PB92 protease mutant M216Q (enzyme), for which the kcat/Km (Km in mM and kcat in 1/s) in experiment [2] turned out to be 3000 M⁻¹ s⁻¹. For the same substance, the Specific activity relative to PB92 protease (%), ADU method in experiment [1] came to 37%.

As for “PB92 protease mutant [G116V, S126G, P127Q, S128I] (enzyme)”, the kcat/Km (Km in mM and kcat in 1/s) in experiment [2] was 13000 M⁻¹ s⁻¹. In experiment [1], the Specific activity relative to PB92 protease (%), ADU method worked out at 95%.

Take PB92 protease mutant S160C (enzyme): the kcat/Km (Km in mM and kcat in 1/s) in experiment [2] was 21000 M⁻¹ s⁻¹. The Specific activity relative to PB92 protease (%), ADU method in experiment [1] worked out at 48%.

Regarding PB92 protease mutant N212S (enzyme), in experiment [1], the Specific activity relative to PB92 protease (%), ADU method stood at 85%.

Regarding “PB92 protease mutant [G116V, S126F, P127L, S128T] (enzyme)”, in experiment [2], the kcat/Km (Km in mM and kcat in 1/s) came to 19000 M⁻¹ s⁻¹.

For “PB92 protease mutant [G116V, S126R, P127S, S128P] (enzyme)”, the Specific activity relative to PB92 protease (%), ADU method in experiment [1] was found to be 81%.

Turning to PB92 protease mutant M216S (enzyme), in experiment [2], the kcat/Km (Km in mM and kcat in 1/s) turned out to be 5000 M⁻¹ s⁻¹. Further, the Specific activity relative to PB92 protease (%), ADU method in experiment [1] was determined as 40%.

On to PB92 protease M216-oxidized (enzyme), for which the kcat/Km (Km in mM and kcat in 1/s) in experiment [2] came to 9000 M⁻¹ s⁻¹. The Specific activity relative to PB92 protease (%), ADU method in experiment [1] stood at 50%.

As to “PB92 protease mutant [G116V, S126V, P127E, S128K] (enzyme)”, the kcat/Km (Km in mM and kcat in 1/s) in experiment [2] turned out to be 86000 M⁻¹ s⁻¹. The Specific activity relative to PB92 protease (%), ADU method in experiment [1] turned out to be 43%.

Take PB92 protease mutant N212D (enzyme): in experiment [2], the kcat/Km (Km in mM and kcat in 1/s) stood at 86000 M⁻¹ s⁻¹. For the same substance, the Specific activity relative to PB92 protease (%), ADU method in experiment [1] was determined as 100%.

Regarding PB92 protease mutant S160D (enzyme), the kcat/Km (Km in mM and kcat in 1/s) in experiment [2] is 12000 M⁻¹ s⁻¹. Further, the Specific activity relative to PB92 protease (%), ADU method in experiment [1] was 73%.

With PB92 protease mutant E134K (enzyme), the kcat/Km (Km in mM and kcat in 1/s) in experiment [2] is 49000 M⁻¹ s⁻¹. Moreover, in experiment [1], the Specific activity relative to PB92 protease (%), ADU method amounted to 95%.

For “PB92 protease mutant [A166D, M169I] (enzyme)”, the Specific activity relative to PB92 protease (%), ADU method in experiment [1] is 100%.

Turning to “PB92 protease mutant M117L, M216S (enzyme)”, the kcat/Km (Km in mM and kcat in 1/s) in experiment [2] came out at 8000 M⁻¹ s⁻¹. Moreover, in experiment [1], the Specific activity relative to PB92 protease (%), ADU method worked out at 36%.

Regarding “PB92 protease mutant [S160D, M216Q] (enzyme)”, the Specific activity relative to PB92 protease (%), ADU method in experiment [1] turned out to be 12%.

In the case of “PB92 protease mutant [G116V, S126L, P127N, S128V] (enzyme)”, the kcat/Km (Km in mM and kcat in 1/s) in experiment [2] worked out at 65000 M⁻¹ s⁻¹. Further, the Specific activity relative to PB92 protease (%), ADU method in experiment [1] was 81%.

With “PB92 protease mutant [S160G, N212D] (enzyme)”, the kcat/Km (Km in mM and kcat in 1/s) in experiment [2] turned out to be 18000 M⁻¹ s⁻¹. The Specific activity relative to PB92 protease (%), ADU method in experiment [1] is 76%.

As for “PB92 protease mutant [S160D, M216S] (enzyme)”, the Specific activity relative to PB92 protease (%), ADU method in experiment [1] is 17%.

On to “PB92 protease mutant M117L, M216Q (enzyme)”, for which the kcat/Km (Km in mM and kcat in 1/s) in experiment [2] was 2000 M⁻¹ s⁻¹. Further, in experiment [1], the Specific activity relative to PB92 protease (%), ADU method amounted to 27%.

In the case of PB92 protease mutant S160K (enzyme), in experiment [2], the kcat/Km (Km in mM and kcat in 1/s) amounted to 11000 M⁻¹ s⁻¹. For the same substance, in experiment [1], the Specific activity relative to PB92 protease (%), ADU method was 47%.

“PB92 protease mutant [G116V, S126V, P127M] (enzyme)”: in experiment [2], the kcat/Km (Km in mM and kcat in 1/s) was 98000 M⁻¹ s⁻¹. Further, in experiment [1], the Specific activity relative to PB92 protease (%), ADU method was determined as 69%.

Consider PB92 protease mutant M216C (enzyme), for which, in experiment [2], the kcat/Km (Km in mM and kcat in 1/s) came to 30000 M⁻¹ s⁻¹. Further, the Specific activity relative to PB92 protease (%), ADU method in experiment [1] was 36%.

Take “PB92 protease mutant [S126M, P127A, S128G] (enzyme)”: in experiment [2], the kcat/Km (Km in mM and kcat in 1/s) is 180000 M⁻¹ s⁻¹. The Specific activity relative to PB92 protease (%), ADU method in experiment [1] came out at 115%.

Regarding “PB92 protease (serine protease of Bacillus nov. spec. PB92) (enzyme)”, the kcat/Km (Km in mM and kcat in 1/s) in experiment [2] amounted to 102000 M⁻¹ s⁻¹. Also, the turnover number (kcat) measured on casein in experiment [3] is 90 s⁻¹.

As to “PB92 protease mutant [G116V, S126L, P127Q, S128A] (enzyme)”, the kcat/Km (Km in mM and kcat in 1/s) in experiment [2] was 57000 M⁻¹ s⁻¹. Besides, in experiment [1], the Specific activity relative to PB92 protease (%), ADU method is 62%.

For “PB92 protease mutant M169I, M216S (enzyme)”, in experiment [1], the Specific activity relative to PB92 protease (%), ADU method came to 44%.

For the substance “PB92 protease mutant [G116V, S126H, P127Y] (enzyme)”, the Specific activity relative to PB92 protease (%), ADU method in experiment [1] was found to be 73%.

“PB92 protease mutant G116V, S126N, P127H, S128I (enzyme)”: in experiment [1], the Specific activity relative to PB92 protease (%), ADU method was determined as 115%.
